Consider two molecules from patent publication US20090181035A1 (Genentech, published 2009).

For orientation: Kd means the equilibrium constant for the complex coming apart.

The target in experiment [1] is T1, PlxD1-Fc (human PlexinD1 ECD Met1 to Ala1271 fused to the Fc portion of human IgG1) (human, UniProt Q9Y4D7 47-1271).
T1 construct: range 1-1271; also called PlexinD1 immunoadhesin; soluble PlexinD1; not shown: Fc portion of human IgG1
T1 sequence (looked up): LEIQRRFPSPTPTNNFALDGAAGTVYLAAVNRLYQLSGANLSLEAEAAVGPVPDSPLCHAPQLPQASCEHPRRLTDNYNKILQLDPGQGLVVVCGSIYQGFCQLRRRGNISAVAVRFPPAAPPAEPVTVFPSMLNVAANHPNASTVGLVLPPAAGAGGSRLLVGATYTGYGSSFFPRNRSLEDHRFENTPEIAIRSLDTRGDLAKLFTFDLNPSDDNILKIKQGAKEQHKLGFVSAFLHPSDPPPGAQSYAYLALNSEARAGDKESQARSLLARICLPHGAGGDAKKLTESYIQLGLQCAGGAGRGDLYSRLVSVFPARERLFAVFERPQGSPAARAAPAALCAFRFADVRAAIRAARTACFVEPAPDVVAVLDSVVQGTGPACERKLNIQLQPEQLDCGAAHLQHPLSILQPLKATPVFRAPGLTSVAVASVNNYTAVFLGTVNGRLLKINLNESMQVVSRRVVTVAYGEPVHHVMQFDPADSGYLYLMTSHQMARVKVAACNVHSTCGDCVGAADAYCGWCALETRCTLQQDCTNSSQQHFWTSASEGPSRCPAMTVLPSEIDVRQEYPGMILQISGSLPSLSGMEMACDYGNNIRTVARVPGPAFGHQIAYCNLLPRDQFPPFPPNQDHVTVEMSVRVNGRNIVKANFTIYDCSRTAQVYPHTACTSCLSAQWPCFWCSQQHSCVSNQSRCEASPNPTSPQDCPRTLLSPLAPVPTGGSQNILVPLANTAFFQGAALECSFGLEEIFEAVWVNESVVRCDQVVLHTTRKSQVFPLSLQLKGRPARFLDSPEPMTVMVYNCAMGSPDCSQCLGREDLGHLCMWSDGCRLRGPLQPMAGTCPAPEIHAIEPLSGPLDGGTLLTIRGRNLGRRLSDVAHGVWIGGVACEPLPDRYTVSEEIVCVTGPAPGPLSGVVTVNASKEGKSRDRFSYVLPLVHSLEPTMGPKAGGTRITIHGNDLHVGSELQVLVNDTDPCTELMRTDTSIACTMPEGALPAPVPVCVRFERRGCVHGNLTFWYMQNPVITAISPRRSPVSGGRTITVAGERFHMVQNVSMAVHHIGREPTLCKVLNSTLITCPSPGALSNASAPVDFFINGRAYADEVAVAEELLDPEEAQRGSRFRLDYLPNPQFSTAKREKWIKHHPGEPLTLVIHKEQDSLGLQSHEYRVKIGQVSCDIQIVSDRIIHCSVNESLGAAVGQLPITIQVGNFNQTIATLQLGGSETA
In words: SPR (Biacore 3000, 25 C); PlxD1-Fc amine-coupled on CM5 chip, Sema3E^SD-His as analyte; one-to-one model; SPR, 25 C; PlxD1-Fc on the chip, His-tagged Sema3E^SD as analyte. As to the method:
Binding experiments were performed by SPR measurements on a Biacore 3000 instrument (Biacore Inc.) at 25° C. PlxD1-Fc constructed as described in Example 1 was immobilized at high surface density (˜10,000 RU) on an activated CM5 chip using standard amine coupling procedures as described by the manufacturer. PlxD1-Fc was injected at a concentration of 10 μg/ml in 20 mM sodium acetate, pH 4.5 and at a flow rate of 5 μl/min until desired surface densities, measured in response units (RU), were reached. Unreacted groups were blocked by injecting 1 M ethanolamine. To perform binding assays, different concentrations of Sema3E^SD-His were injected in 10 mM HEPES pH 7.4, 150 mM NaCl, 0.005% v/v Surfactant P20, at a flow rate of 5 μl/min. Blank surfaces were used for background corrections. Injections of 10 mM glycine, pH 3.0 at 100 μl/min for 1 min were used to regenerate surfaces between two binding experiments. Kinetic analysis was performed with binding sensorgrams of different analyte concentrations using the BIAevaluation Software (Biacore Inc.). An one-to-one binding model was used to fit the experimental data for association and dissociation reactions. Dissociation constants were calculated from the on and off rates. […] Radioligand cell binding assays were performed and the dissociation constant for Sema3E^SD-Fc binding to HUVECs was calculated to 4 nM.
On the technique in general: In SPR one partner is held on a chip, and binding of the other changes the refractive index at the surface.

Experiment [2] has as its target T2, murine PlexinD1 expressed on mouse microvascular endothelial (MS1) cells (mouse, UniProt Q3UH93 49-1925).
T2 construct: whole, on cells; Endogenous receptor on a cell line
In words: FACS on MS1 cells.

Experiment [3] concerns the target T3, human PlexinD1 expressed on human umbilical vein endothelial cells (HUVECs) (human, UniProt Q9Y4D7 47-1925).
T3 construct: whole, on cells; Endogenous receptor on primary cells; also called native PlexinD1
In words: radioligand cell binding assay on HUVECs; radioligand binding on HUVECs (endogenous human PlexinD1); Fc fusion, not His.

B1: Sema3E^SD-His (human Semaphorin 3E Ala26 to Arg560 of SEQ ID NO: 1 with an N-terminal Histidine tag) (ligand, not shown: small tags and cut ends)
chain: ADTTHPRLRLSHKELLNLNRTSIFHSPFGFLDLHTMLLDEYQERLFVGGRDLVYSLSLERISDGYKEIHWPSTALKMEECIMKGKDAGECANYVRVLHHYNRTHLLTCGTGAFDPVCAFIRVGYHLEDPLFHLESPRSERGRGRCPFDPSSSFISTLIGSELFAGLYSDYWSRDAAIFRSMGRLAHIRTEHDDERLLKEPKFVGSYMIPDNEDRDDNKVYFFFTEKALEAENNAHAIYTRVGRLCVNDVGGQRILVNKWSTFLKARLVCSVPGMNGIDTYFDELEDVFLLPTRDHKNPVIFGLFNTTSNIFRGHAICVYHMSSIRAAFNGPYAHKEGPEYHWSVYEGKVPYPRPGSCASKVNGGRYGTTKDYPDDAIRFARSHPLMYQAIKPAHKKPILVKTDGKYNLKQIAVDRVEAEDGQYDVLFIGTDNGIVLKVITIYNQEMESMEEVILEELQIFKDPVPIISMEISSKRQQLYIGSASAVAQVRFHHCDMYGSACADCCLARDPYCAWDGISCSRYYPTGTHAKRRFRR
notes: Produced by transient transfection of CHO cells; also called His-tagged Sema3E^SD; soluble Sema3E sema domain construct
As to B1, the affinity in experiment [1], expressed as Kd, was 24 nM.

B2: Sema3E^SD-Fc (human Semaphorin 3E Met1 to Ala554 of SEQ ID NO: 1 with the Fc portion of human IgG1 as C-terminal fusion partner) (Fc fusion)
chain: ADTTHPRLRLSHKELLNLNRTSIFHSPFGFLDLHTMLLDEYQERLFVGGRDLVYSLSLERISDGYKEIHWPSTALKMEECIMKGKDAGECANYVRVLHHYNRTHLLTCGTGAFDPVCAFIRVGYHLEDPLFHLESPRSERGRGRCPFDPSSSFISTLIGSELFAGLYSDYWSRDAAIFRSMGRLAHIRTEHDDERLLKEPKFVGSYMIPDNEDRDDNKVYFFFTEKALEAENNAHAIYTRVGRLCVNDVGGQRILVNKWSTFLKARLVCSVPGMNGIDTYFDELEDVFLLPTRDHKNPVIFGLFNTTSNIFRGHAICVYHMSSIRAAFNGPYAHKEGPEYHWSVYEGKVPYPRPGSCASKVNGGRYGTTKDYPDDAIRFARSHPLMYQAIKPAHKKPILVKTDGKYNLKQIAVDRVEAEDGQYDVLFIGTDNGIVLKVITIYNQEMESMEEVILEELQIFKDPVPIISMEISSKRQQLYIGSASAVAQVRFHHCDMYGSACADCCLARDPYCAWDGISCSRYYPTGTHA
notes: The construct as cloned starts at Met1; also called Sema3E^SD-Fc immunoadhesin; not shown: Fc portion of human IgG1
B2: in experiment [2], the binding result is “binds”. The same molecule gave a Kd in experiment [3] of 4 nM.
